From publication PMC5852640 come the findings set out here.

Assay [1] concerns the target BG505 SOSIP.664 HIV-1 envelope glycoprotein trimer (HIV-1 (BG505, clade A)). As to the kind of experiment: SEC; purified Drug Substance of the 50 L Confirmation, 200 L Demonstration and 200 L cGMP runs; SEC / SE-HPLC; details in SOM Methods.
The target is the same in assay [2]. The assay is described as follows: negative-stain electron microscopy; NS-EM imaging of the purified Drug Substance of the three production runs; details in SOM Methods.

On to “BG505 SOSIP.664 HIV-1 envelope glycoprotein trimer (complex)”, for which the stoichiometry N in assay [1] and in assay [2] was 3 each time.
